Measurements published in PMC6025827 (Nature structural & molecular biology, 2018).

Biological target: the molecule itself
Assay: crystal structure

B1: miTRPV2QM (minimal rabbit TRPV2 construct with the four point mutations F470S, L505M, L508T and Q528E) (domain or fragment)
chain: LNYRKGAGASQPDLNRFDRDRLFNVVARGNPEDLAGLLEYLRRTSKYLTDSEYTEGSTGKTCLMKAVLNLQDGVNACIQPLLEIDRDSGNPQPLVNAQCTDEYYRGHSALHIAIEKRSLQCVKLLVENGANVHAKACGHFFQKNQDTCFYFGELPLSLAACTKQWDVVNYLLENPHQPASLQAQDSLGNTVLHALVMIADDSAENSALVVRMYDGLLQAGARLCPNVQLEGIPNLEGLTPLKLAAKEGKIEIFKHILQREFSAPCQSLSRKFTEWCYGPVRVSLYDLASVDSWEENSVLEIIAFHSRSPHRHRMVVLEPLNKLLQAKWDRLIPRFCFNFLCYLVYMLIFTAVAYHQPALEKQGFPPLKATAGNSMLLLGHILILLGGVYLLLGQLWYFWRRRLFIWISFMDSYSEILFLLQALLTVLSQVLCFLAIEWYLPLLVSSLVMGWTNLLYYTRGFQHTGIYSVMIEKVILRDLLRFLLVYLVFLFGFAVALVSLSREAQDEAPPYRSILDASLELFKFTIGMGELAFQEQLRFRGVVLLLLLAYVLLTYVLLLNMLIALMSETVNSVATDSWSIWKLQKAISVLEMENGYWWCRRKKQRAGVMLTVGTRPDGSPDERWCFRVGEMNWATWEQTLPRTLC
stoichiometry N: 4
